# Reference: patent US6375944B1, “Methods and compositions for enhancing the immunostimulatory effect of interleukin-12” (The Wistar Institute of Anatomy and Biology, priority 1998, dated 2002)
# Where two headings read alike, the source gives them in different places.
# What was measured:
# [1] = test system: SCK cells; test: Irradiated wild-type SCK cell vaccination followed by SCK tumor cell challenge; type: in vivo, A/J mice; conditions: SCK-vaccinated mice; at 28 days; rmIL-12 alone, or L-NAME/D-NAME given with rmIL-12
# Text: Female A/J mice (8 mice per group) were vaccinated with 10^6 irradiated SCK cells and received either PBS, rmIL-12, rmIL-12+L-NAME or rmIL-12 and D-NAME on days 0-4 and 7-11. Mice were challenged fourteen days after vaccination with 2.5×10^4 SCK cells in the opposite flank. Tumorigenesis was scored daily, as described above.
# [2] = test system: splenocytes; test: Mitogen and alloantigen stimulation of splenocytes (3H-thymidine incorporation), whole or adherent/nonadherent cocultures; type: cell-based, mice; conditions: for proliferative responses to Con A, IL-12 and allogeneic stimulation: data not shown
# Procedure: The mitogen and alloantigen stimulation of splenocytes assay was performed as follows: In vitro mitogenic stimulation of splenocytes with […] Con A or 100 U/ml rmIL-12 was performed as described [Kurzawa, cited above]. Proliferative responses to allogeneic antigens (mixed lymphocyte reaction, MLR) was measured when splenocytes from the mice were stimulated with 10^5 mitomycin treated A/J splenocytes. Splenocyte fractionation was performed by allowing 10^5 splenocytes to adhere for 90 minutes in 96 well plates, after which the nonadherent cells were removed and cocultured with adherent cells from different wells for assay. When added, antibodies (XMG6 for IFNγ, XT22 for TNFα, AE5 for IL-10 and C17.8 for IL-12 ) were used at […] final concentration. After 72 hours exposure to mitogen, cultures were pulsed with 1 μCi^3H-thymidine for 16 hours, cells were harvested and ^3H incorporation was measured by scintillation counting. Supernatants from cultures assayed for IFNγ by radioimmunoassay (RIA) (using antibodies AN18 and XMG6 [Wysocka, M. et al. 1995 Eur. J. Immunol. 25:672] were harvested 24 or 72 hours after stimulation.
# A. Splenocytes from rmIL-12- and PBS-treated C57BL/6 mice were fractioned by adherence to 96 well plastic plates for 90 minutes. The cells were reconstituted in various combinations of adherent and nonadherent cells by overlaying nonadherent cells on the adherent cells. These cocultures were then stimulated with either 2.5 μg/ml Con A, 100 U/ml IL-12, or 10^5 mitomycin C treated A/J (H-2A) splenocytes, as described in the mitogen/alloantigen assay of Example 1.
# B. Cocultures were established from splenic adherent and nonadherent cells of PBS-treated mice or from the adherent cells of rmIL-12-treated mice and nonadherent cells of PBS-treated mice. Antibodies XMG6 (to IFNγ), XT22 (to TNFα), AE5 (to IL-10) and C17.8 (to IL-12 ) were added to a final concentration of […] in cocultures containing adherent cells from spleen of rmIL-12-treated mice, also according to the assay described in Example 1.
# Cocultures were established from splenic adherent and nonadherent cells of PBS-treated mice or from the adherent cells of rmIL-12-treated mice and nonadherent cells of PBS-treated mice. Antibodies XMG6 (to IFNγ), XT22 (to TNFα), AE5 (to IL-10) and C17.8 (to IL-12) were added to a final concentration of […] in cocultures containing adherent cells from spleen of rmIL-12-treated mice. An inhibitor of inducible nitric oxide synthase (iNOS), L-NMMA (Sigma), was added to cocultures of adherent cells from rmIL-12 treated mice and nonadherent cells from control mice at a final concentration of […]. Alternatively, D-NMMA (Sigma), a noninhibitory isoform of L-NMMA, was added to other cocultures as a control.
# [3] = test system: SCK cells; conditions: A/J mice with established SCK immunity; given just prior to tumor cell rechallenge; cited from earlier work
# [4] = Splenomegaly after a course of rmIL-12; type: in vivo; conditions: iNOS−/− mice, like wild-type mice
# [5] = test system: SCK tumors; test: Antitumor activity of rmIL-12 against SCK tumors (tumorigenesis scored daily); type: in vivo, A/J mice; conditions: L-NAME given with rmIL-12
# Procedure: Female A/J mice were injected with 2.5×10^4 SCK cells and either PBS, rmIL-12, rmIL-12+L-NAME or rmIL-12 and D-NAME on days 0-4 and 7-11. Tumorigenesis was scored daily, as described above.
# [6] = test system: SCK cells; conditions: cited from earlier work
# [7] = test system: SCK cells; test: SCK.GM cell vaccination followed by SCK tumor cell challenge; type: in vivo, A/J mice; conditions: rmIL-12 250 ng/day ip days 0-4 and 7-11; challenge two weeks after vaccination
# Text: A. Female A/J mice were vaccinated with 10^6 irradiated SCK.GM cells suspended in PBS at 10^7 trypan blue-excluding cells/ml. Cells were irradiated with 6000 rads from a ^137Cs source, and mice were vaccinated with 10^6 cells s.c. (day 0). […] Vaccinated and naive A/J mice were challenged fourteen days after vaccination with 2.5×10^4 trypan blue-excluding SCK cells in the opposite flank to assay for the presence of tumor immunity. Tumorigenesis was scored daily.
# [8] = test system: SCK cells; conditions: cited from earlier work; remark: listed apart in the source
molecule,measurement,setting,value
"rmIL-12: recombinant murine Interleukin-12, heterodimeric cytokine, from Genetics Institute (protein, UniProt P43431 23-215; P43432 23-335, looked up) Interleukin-12 subunit alpha: RVIPVSGPARCLSQSRNLLKTTDDMVKTAREKLKHYSCTAEDIDHEDITRDQTSTLKTCLPLELHKNESCLATRETSSTTRGSCLPPQKTSLMMTLCLGSIYEDLKMYQTEFQAINAALQNHNHQQIILDKGMLVAIDELMQSLNHNGETLRQKPPVGEADPYRVKMKLCILLHAFSTRVVTINRVMGYLSSA Interleukin-12 subunit beta: MWELEKDVYVVEVDWTPDAPGETVNLTCDTPEEDDITWTSDQRHGVIGSGKTLTITVKEFLDAGQYTCHKGGETLSHSHLLLHKKENGIWSTEILKNFKNKTFLKCEAPNYSGRFTCSWLVQRNMDLKFNIKSSSSSPDSRAVTCGMASLSAEKVTLDQRDYEKYSVSCQEDVTCPTAEETLPIELALEARQQNKYENYSTSFFIRDIIKPDPPKNLQMKPLKNSQVEVSWEYPDSWSTPHSYFSLKFFVRIQRKKEKMKETEEGCNQKGAFLVEKTSTEVQCKGGNVCVQAQDRYYNSSCSKWACVPCRVRS",level of protection,[1],75%
same,mitogenic responses,"[2]; cultures of adherent and nonadherent splenocytes both from rmIL-12 treated mice, vs. PBS-treated",suppressed mitogenic responses
same,"proliferative responses (Con A, IL-12 or alloantigen)",[2]; nonadherent cells from control mice mixed with adherent cells from rmIL-12 treated mice,severely impaired
same,mitogenic responses,[2]; nonadherent cells from rmIL-12 treated mice cocultured with adherent cells from PBS-treated mice,normal mitogenic responses
same,in vitro mitogenic and alloproliferative responses,[2]; splenocytes from rmIL-12-treated HKB-vaccinated C57BL/6 mice,suppressed
same,"proliferative responses to Con A, IL-12 and allogeneic stimulation",[2]; splenocytes from rmIL-12-treated TNFR−/− mice,suppressed
same,proliferative responses after stimulation with mitogens or alloantigens,[2]; splenocytes from rmIL-12-treated iNOS−/− mice,proliferative responses like those of splenocytes from control mice
same,"proliferative responses to Con A, IL-12 and allogeneic stimulation",[2]; splenocytes from rmIL-12 treated IFNγ−/− mice,normal proliferative responses
same,Effect on tumor protection,[3],impairs tumor protection
same,splenomegaly,[4],induced splenomegaly
same,median days to tumor appearance,"[5]; 2.5×10^4 SCK cells, treatment days 0-4 and 7-11, 9 days without rmIL-12",14 days
same,delay of tumor appearance vs. untreated mice,[5]; treatment started on day of SCK cell injection,about 5 days
same,Effect on protection by irradiated SCK cell vaccination,[6]; challenged 14 days after vaccination,did not improve protection
same,Effect on protection by irradiated SCK cell vaccination,[6]; challenged at 28 days,did improve protection
same,Effect on SCK.GM vaccine protection from tumor cell challenge,[7],severely impaired this protection
same,Effect on SCK.GM vaccine protection,[8]; four weeks after vaccination,had no deleterious effect
same,Effect on SCK.GM vaccine protection,[8]; two weeks after vaccination,abrogated protection
